Measured values reported in patent US12304939B2, “EGFR and C-met fibronectin type III domain binding molecules” (Janssen Biotech, Inc., priority 2012, dated 2025).
“And” between values parts separate entries of the source, which are not always exact repeats. Equal values may be shown once. “Also recorded” adds a separate entry of the source. Each block holds one molecule with its values, some of them ahead of it.

Experiments:
EGFR [1] = biological target: T1, EGFR (Homo sapiens, UniProt P00533); test: Inhibition of EGFR phosphorylation in NCI-H441 cells; assay type: cell-based; set-up: host or cells: NCI-H292; settings: FIG. 5C
Experimental: (§1) NCI-H292, NCI-H441, or NCI-H596 cells were plated in 96 well plates in RPMI medium containing 10% FBS. 24 hours later, medium was replaced with serum free RPMI. […] Cells were treated for 1 h with the monospecific or bispecific molecules and then stimulated with EGF, HGF, or a combination of EGF and HGF for 15 minutes at 37° C., 5% CO2. Cells were lysed with MSD Lysis Buffer and cell signaling was assessed using appropriate MSD Assay plates, according to manufacturer's instructions, as described above.

EGFR [2] = biological target: T1, EGFR; test: Inhibition of EGFR phosphorylation in NCI-H292 cells; assay type: cell-based; set-up: host or cells: NCI-H292; settings: FIG. 5A
Experimental: Purified EGFR-binding FN3 domains were tested for their ability to inhibit EGF-stimulated phosphorylation of EGFR in A431 cells at a single concentration. EGFR phosphorylation was monitored using the EGFR phospho(Tyr1173) kit (Meso Scale Discovery). […] Controls were treated with starvation medium only. […] One set of control wells was left un-stimulated as negative controls. Medium was completely removed, and cells were lysed with 100 μL/well of Complete Lysis Buffer (Meso Scale Discovery) for 10 minutes at room temperature with shaking, as per the manufacturer's instructions. […] Signals were detected by addition of 150 μL/well of Read Buffer (Meso Scale Discovery) and reading on a SECTOR® Imager 6000 instrument (Meso Scale Discovery) using manufacturer-installed assay-specific default settings. Percent inhibition of the EGF-stimulated positive control signal was calculated for each EGFR-binding FN3 domain.
NCI-H292, NCI-H441, or NCI-H596 cells were plated in 96 well plates in RPMI medium containing 10% FBS. […] Cells were lysed with MSD Lysis Buffer and cell signaling was assessed using appropriate MSD Assay plates, according to manufacturer's instructions, as described above.

EGFR [3] = biological target: T1, EGFR; test: Inhibition of EGFR phosphorylation in NCI-H596 cells; assay type: cell-based; set-up: host or cells: NCI-H292; settings: FIG. 5B
Experimental: as §1

c-Met-Fc fusion protein = biological target: T2, c-Met-Fc fusion protein (Homo sapiens, UniProt P08581); test: c-Met-Fc affinity by surface plasmon resonance (Proteon); assay type: binding
T2 construct: recombinant EGFR and/or c-Met extracellular domain
T2 sequence (P08581 25-932 limits assumed): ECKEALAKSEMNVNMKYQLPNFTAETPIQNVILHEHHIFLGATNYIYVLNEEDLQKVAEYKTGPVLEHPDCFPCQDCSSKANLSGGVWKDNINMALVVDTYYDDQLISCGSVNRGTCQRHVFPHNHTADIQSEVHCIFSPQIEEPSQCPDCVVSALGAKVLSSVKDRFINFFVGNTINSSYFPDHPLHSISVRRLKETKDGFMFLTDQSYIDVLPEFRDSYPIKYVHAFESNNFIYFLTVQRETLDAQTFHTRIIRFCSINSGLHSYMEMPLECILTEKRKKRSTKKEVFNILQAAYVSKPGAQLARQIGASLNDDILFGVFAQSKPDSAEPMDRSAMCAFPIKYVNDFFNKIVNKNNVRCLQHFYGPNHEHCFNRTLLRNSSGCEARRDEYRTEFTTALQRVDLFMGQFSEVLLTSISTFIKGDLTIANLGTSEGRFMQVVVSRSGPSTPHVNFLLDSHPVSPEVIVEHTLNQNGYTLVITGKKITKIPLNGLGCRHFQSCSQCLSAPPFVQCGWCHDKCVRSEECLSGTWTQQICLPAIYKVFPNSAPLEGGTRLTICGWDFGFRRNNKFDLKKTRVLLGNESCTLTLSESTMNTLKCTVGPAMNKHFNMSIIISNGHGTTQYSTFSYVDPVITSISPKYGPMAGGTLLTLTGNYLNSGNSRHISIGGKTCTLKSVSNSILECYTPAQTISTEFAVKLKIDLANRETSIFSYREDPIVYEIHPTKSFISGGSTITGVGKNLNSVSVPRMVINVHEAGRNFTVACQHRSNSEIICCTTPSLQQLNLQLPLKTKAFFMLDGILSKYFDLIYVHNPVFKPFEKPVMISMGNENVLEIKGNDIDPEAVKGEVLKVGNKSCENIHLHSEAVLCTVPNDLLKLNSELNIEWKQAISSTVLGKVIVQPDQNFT

H292 cells = test: Inhibition of proliferation of HGF-induced H292 cells; assay type: cell-based, human; settings: bispecific molecules
Description: Inhibition of tumor cell proliferation can be measured using standard methods and methods described herein.
The proliferation assay was completed using different combinations EGFR and c-Met binding FN3 domains either as a mixture or linked in a bispecific format. […] This confirmed that the avidity effect observed at the level of the receptors (FIG. 4 and FIG. 5) translates into an improvement in inhibiting cell signaling (Table 12) and cell proliferation (Table 13).
(§2) Inhibition of human tumor cell growth was assessed in standard attachment culture as described in Examples 3 or 6, or in low attachment conditions.

[4] = tested on: cell lines shown in Table 20; test: Inhibition of human tumor cell growth by bispecific molecule in cell line panel (standard or low attachment); assay type: cell-based
Experimental: as §2

[5] = biological target: T3, recombinant EGFR extracellular domain (EGFR-Fc) (Homo sapiens, UniProt P00533); test: EGFR-Fc affinity by surface plasmon resonance (Proteon); assay type: binding; settings: bispecific molecules; read-out: KD (EGFR)
T3 construct: purchased R&D Systems
Experimental: Select EGFR-binding FN3 domains were screened to identify those with slow off-rates (koff) in binding to EGFR-Fc on a ProteOn XPR-36 instrument (Bio-Rad) to facilitate selection of high affinity binders. Goat anti-human Fc IgG (R&D systems), at a concentration of 5 μg/mL, was directly immobilized via amine coupling (at pH 5.0) on all 6 ligand channels in horizontal orientation on the chip with a flow rate of 30 μL/min in PBS containing 0.005% Tween-20. The immobilization densities averaged about 1500 Response Units (RU) with less than 5% variation among different channels. EGFR-Fc was captured on the anti-human Fc IgG surface to a density around 600 RU in vertical ligand orientation. All tested FN3 domains were normalized to a concentration of 1 μM and tested for their binding in horizontal orientation. […] The dissociation phase was monitored for 10 minutes at a flow rate of 100 μL/min. […]
Binding affinity of selected EGFR-binding FN3 domains to recombinant EGFR extracellular domain was further characterized by surface Plasmon resonance methods using a Proteon Instrument (BioRad). […] The dissociation phase for all concentrations of each EGFR-binding FN3 domain was monitored at a flow rate of 100 μL/min for 30 minutes (for those with koff ˜10^−2 s^−1 from off-rate screening), or 1 hour (for those with koff ˜10^−3 s^−1 or slower). […]

[6] = Body weight loss and tolerability in the H292-HGF xenograft study; settings: mouse, in vivo; listed as bispecific EGFR/c-Met molecule
Experimental: At the time of routine monitoring, the animals were checked for any effects of tumor growth and treatments on normal behavior, such as mobility, visual estimation of food and water consumption, body weight gain/loss (body weights were measured twice weekly), eye/hair matting and any other abnormal effect.
Animals for which the body weight loss exceeded 20%, or for which the mean tumor size of the group exceeds 2000 mm^3 were euthanized. The study was terminated after two weeks of observation after the final dose.

[7] = tested on: NCI-H292 cells expressing human HGF; test: Tumor efficacy study with four bispecific EGFR/c-Met molecules, H292-HGF xenografts; assay type: in vivo, SCID Beige mice; settings: 25 mg/kg three times per week
Experimental: One week after implantation, mice were stratified into groups with equivalent tumor volumes (mean tumor volume=77.9+/−1.7 mm3). Mice were dosed three times per week with the bispecific molecules and tumor volumes were recorded twice weekly.

[8] = tested on: H292-HGF human lung cancer xenograft; test: Efficacy of bispecific molecule and other inhibitors of EGFR and c-Met, subcutaneous H292-HGF human lung cancer xenograft; assay type: in vivo, SCID/Beige mice; settings: for Tumor volume: mean ± SEM
Experimental: The H292-HGF cells were maintained in vitro in RPMI1640 medium supplemented with fetal bovine serum (10% v/v), and L-glutamine (2 mM) at 37° C. in an atmosphere of 5% CO2 in air. The cells were routinely subcultured twice weekly by trypsin-EDTA treatment. The cells growing in an exponential growth phase were harvested and counted for tumor inoculation.
Each mouse was inoculated subcutaneously at the right flank region with H292-HGF tumor cells (2×10^6) in 0.1 ml of PBS with cultrex (1:1) for tumor development. The treatments were started when the mean tumor size reached 139 mm3. […] The date of tumor cell inoculation was denoted as day 0.
Before commencement of treatment, all animals were weighed, and the tumor volumes were measured. Since the tumor volume can affect the effectiveness of any given treatment, mice were assigned into groups using randomized block design based upon their tumor volumes. […] The randomized block design was used to assign experimental animals to groups. First, the experimental animals were divided into homogeneous blocks according to their initial tumor volume. Secondly, within each block, randomization of experimental animals to treatments was conducted.
The endpoint was whether tumor growth can be delayed or tumor bearing mice can be cured. Tumor size was measured twice weekly in two dimensions using a caliper, and the volume was expressed in mm3 using the formula: V=0.5 a×b2 where a and b are the long and short diameters of the tumor, respectively. The tumor size was then used for calculations of both T-C and T/C values. T-C was calculated with T as the time (in days) required for the mean tumor size of the treatment group to reach 1000 mm3, and C was the time (in days) for the mean tumor size of the control group to reach the same size. The T/C value (in percent) was an indication of antitumor efficacy; T and C were the mean tumor volume of the treated and control groups, respectively, on a given day. Complete tumor regression (CR) is defined as tumors that are reduced to below the limit of palpation (62.5 mm3). Partial tumor regression (PR) is defined as tumors that are reduced from initial tumor volume. A minimum duration of CR or PR in 3 or more successive tumor measurements is required for a CP or PR to be considered durable.
Statistical analyses of difference in tumor volume among the groups were evaluated using a one-way ANOVA followed by individual comparisons using Games-Howell (equal variance not assumed). All data were analyzed using SPSS 18.0. p<0.05 was considered to be statistically significant.

[9] = serine mutants of A3 in the context of ECB15

ka (c-Met-Fc fusion protein; [9]): 351000 M⁻¹ s⁻¹
kd (c-Met-Fc fusion protein; [9]): 0.000133 s⁻¹
IC50 (H292 cells): 23 nM
B2: ECB15: bispecific SEQ ID NO: 57: P54AR4-83v2, (AP)5, P114AR7P94-A3 (protein)
chain: MLPAPKNLVVSEVTEDSARLSWDDPWAFYESFLIQYQESEKVGEAIVLTVPGSERSYDLTGLKPGTEYTVSIYGVHNVYKDTNMRGLPLSAIFTTAPAPAPAPAPLPAPKNLVVSRVTEDSARLSWTAPDAAFDSFWIRYFEFLGSGEAIVLTVPGSERSYDLTGLKPGTEYVVNIMGVKGGKISPPLSAIFTT
modifications: bispecific EGFR/cMet binding molecule
growth of NCI-H1975 cell line ([4]; EGFR L858R, T790M): inhibited growth
tumor cell growth of cell lines shown in Table 20 ([4]; wild type, amplified or mutant EGFR, wild type or amplified c-Met): inhibited tumor cell growth

Kd (c-Met-Fc fusion protein; bispecific molecules, read-out: KD (c-Met)): 0.32 nM
IC50 (H292 cells): 3.1 nM
Kd [5]: 0.4 nM
B3: ECB168: bispecific SEQ ID NO: 190: P54AR4-83v22, (AP)5, P114AR7P95-C5v2 (protein)
chain: MLPAPKNLVVSEVTEDSARLSWDDPWAFYESFLIQYQESEKVGEAIVLTVPGSERSYDLTGLKPGTEYTVSIYGVHNVYKDTNIRGLPLSAIFTTAPAPAPAPAPLPAPKNLVVSRVTEDSARLSWTAPDAAFDSFWIRYFEFLGSGEAIVLTVPGSERSYDLTGLKPGTEYVVNILSVKGGSISPPLSAIFTT
modifications: Bispecific EGFR/c-Met molecule

Continued, molecule first:

B1: ECB5: bispecific SEQ ID NO: 54: P53A1R5-17v2, (GGGGS)4, P114AR7P94-A3 (protein)
chain: MLPAPKNLVVSEVTEDSARLSWADPHGFYDSFLIQYQESEKVGEAIVLTVPGSERSYDLTGLKPGTEYTVSIYGVHNVYKDTNMRGLPLSAIFTTGGGGSGGGGSGGGGSGGGGSMLPAPKNLVVSRVTEDSARLSWTAPDAAFDSFWIRYFEFLGSGEAIVLTVPGSERSYDLTGLKPGTEYVVNIMGVKGGKISPPLSAIFTT
modifications: bispecific EGFR/cMet binding molecule
decrease of IC50 for inhibition of EGFR phosphorylation compared to monospecific EGFR-binding FN3 domain (EGFR [1]): 30 fold
inhibition of phosphorylation of EGFR, bispecific versus monospecific (EGFR [2]): comparable
inhibition of phosphorylation of EGFR, bispecific versus monospecific (EGFR [3]): comparable

B4: ECB38: bispecific SEQ ID NO: 120: P54AR4-83v2, (AP)5, P114AR7P94-A3, linked to albumin binding domain (protein)
chain: MLPAPKNLVVSEVTEDSARLSWDDPWAFYESFLIQYQESEKVGEAIVLTVPGSERSYDLTGLKPGTEYTVSIYGVHNVYKDTNMRGLPLSAIFTTAPAPAPAPAPLPAPKNLVVSRVTEDSARLSWTAPDAAFDSFWIRYFEFLGSGEAIVLTVPGSERSYDLTGLKPGTEYVVNIMGVKGGKISPPLSAIFTTAPAPAPAPAPLAEAKVLANRELDKYGVSDYYKNLINNAKTVEGVKALLDEILAALP
modifications: Bispecific EGFR/c-Met binding molecule
toxicity, body weight loss, tolerability (in words) [6]: Slight toxicity; also recorded: tolerated in 7 out of 10 mice
tumor growth (tumor growth inhibition, TGI) [7]: reduced tumor growth
tumor growth (tumor growth inhibition, TGI) ([7]; listed as P54AR4-83v2-P114AR7P94-A3): showed the most efficacy
Tumor Size at day 23 ([8]; bispecific 25 mg/kg, crizotinib, erlotinib 50 mg/kg, cetuximab 1 mg/mouse, listed as bispecific EGFR/c-Met molecule): 23 mm^3 and 23 ± 7 mm^3
Tumor volume ([8]; day 7 (start of treatment)): 137 ± 7 mm^3
Tumor volume ([8]; day 9): 142 ± 7 mm^3
Tumor volume ([8]; day 13): 83 ± 6 mm^3
Tumor volume ([8]; day 16): 44 ± 7 mm^3
Tumor volume ([8]; day 20): 30 ± 6 mm^3
Tumor volume ([8]; day 23): 23 ± 7 mm^3
Tumor volume ([8]; day 27): 21 ± 5 mm^3
Tumor volume ([8]; day 30): 23 ± 6 mm^3
antitumor activity (in words) ([8]; mouse, in vivo, listed as bispecific EGFR/c-Met molecule): complete tumor regression (CR) in all mice; also recorded: complete response
